B1: AT500 (peptide)
peptide: PGTFISDYSIAMDRIK(C16 diacid)QQDFVNWLLAQR-NH2
modifications: N-terminus assumed
SMILES: CC[C@H](C)[C@H](NC(=O)[C@H](CO)NC(=O)[C@H](Cc1ccc(O)cc1)NC(=O)[C@H](CC(=O)O)NC(=O)[C@H](CO)NC(=O)[C@@H](NC(=O)[C@H](Cc1ccccc1)NC(=O)[C@@H](NC(=O)CNC(=O)[C@@H]1CCCN1)[C@@H](C)O)[C@@H](C)CC)C(=O)N[C@@H](C)C(=O)N[C@@H](CCSC)C(=O)N[C@@H](CC(=O)O)C(=O)N[C@@H](CCCNC(=N)N)C(=O)N[C@H](C(=O)N[C@@H](CCCCNC(=O)CCCCCCCCCCCCCCC(=O)O)C(=O)N[C@@H](CCC(N)=O)C(=O)N[C@@H](CCC(N)=O)C(=O)N[C@@H](CC(=O)O)C(=O)N[C@@H](Cc1ccccc1)C(=O)N[C@H](C(=O)N[C@@H](CC(N)=O)C(=O)N[C@@H](Cc1c[nH]c2ccccc12)C(=O)N[C@@H](CC(C)C)C(=O)N[C@@H](CC(C)C)C(=O)N[C@@H](C)C(=O)N[C@@H](CCC(N)=O)C(=O)N[C@@H](CCCNC(=N)N)C(N)=O)C(C)C)[C@@H](C)CC
B2: AT498 (peptide)
peptide: SGTFISDYSIAMDRIK(C16 diacid)QQDFVNWLLAQR-NH2
modifications: N-terminus assumed
SMILES: CC[C@H](C)[C@H](NC(=O)[C@H](CO)NC(=O)[C@H](Cc1ccc(O)cc1)NC(=O)[C@H](CC(=O)O)NC(=O)[C@H](CO)NC(=O)[C@@H](NC(=O)[C@H](Cc1ccccc1)NC(=O)[C@@H](NC(=O)CNC(=O)[C@@H](N)CO)[C@@H](C)O)[C@@H](C)CC)C(=O)N[C@@H](C)C(=O)N[C@@H](CCSC)C(=O)N[C@@H](CC(=O)O)C(=O)N[C@@H](CCCNC(=N)N)C(=O)N[C@H](C(=O)N[C@@H](CCCCNC(=O)CCCCCCCCCCCCCCC(=O)O)C(=O)N[C@@H](CCC(N)=O)C(=O)N[C@@H](CCC(N)=O)C(=O)N[C@@H](CC(=O)O)C(=O)N[C@@H](Cc1ccccc1)C(=O)N[C@H](C(=O)N[C@@H](CC(N)=O)C(=O)N[C@@H](Cc1c[nH]c2ccccc12)C(=O)N[C@@H](CC(C)C)C(=O)N[C@@H](CC(C)C)C(=O)N[C@@H](C)C(=O)N[C@@H](CCC(N)=O)C(=O)N[C@@H](CCCNC(=N)N)C(N)=O)C(C)C)[C@@H](C)CC
B3: AT496 (peptide)
peptide: GGTFISDYSIAMDRIK(C16 diacid)QQDFVNWLLAQR-NH2
modifications: N-terminus assumed
SMILES: CC[C@H](C)[C@H](NC(=O)[C@H](CO)NC(=O)[C@H](Cc1ccc(O)cc1)NC(=O)[C@H](CC(=O)O)NC(=O)[C@H](CO)NC(=O)[C@@H](NC(=O)[C@H](Cc1ccccc1)NC(=O)[C@@H](NC(=O)CNC(=O)CN)[C@@H](C)O)[C@@H](C)CC)C(=O)N[C@@H](C)C(=O)N[C@@H](CCSC)C(=O)N[C@@H](CC(=O)O)C(=O)N[C@@H](CCCNC(=N)N)C(=O)N[C@H](C(=O)N[C@@H](CCCCNC(=O)CCCCCCCCCCCCCCC(=O)O)C(=O)N[C@@H](CCC(N)=O)C(=O)N[C@@H](CCC(N)=O)C(=O)N[C@@H](CC(=O)O)C(=O)N[C@@H](Cc1ccccc1)C(=O)N[C@H](C(=O)N[C@@H](CC(N)=O)C(=O)N[C@@H](Cc1c[nH]c2ccccc12)C(=O)N[C@@H](CC(C)C)C(=O)N[C@@H](CC(C)C)C(=O)N[C@@H](C)C(=O)N[C@@H](CCC(N)=O)C(=O)N[C@@H](CCCNC(=N)N)C(N)=O)C(C)C)[C@@H](C)CC
B4: AT504 (peptide)
peptide: SGTFISDYSIAMDRIKQQDFVNWLLAQR
HELM: PEPTIDE1{S.G.T.F.I.S.D.Y.S.I.A.M.D.R.I.K.Q.Q.D.F.V.N.W.L.L.A.Q.R.[am]}|PEPTIDE2{[O=C(O)CCCCCCCCCCCCCCC(=O)[*:2]].[gGlu]}$PEPTIDE1,PEPTIDE2,16:R3-2:R2$$$V2.0; N-terminus assumed
SMILES: CC[C@H](C)[C@H](NC(=O)[C@H](CO)NC(=O)[C@H](Cc1ccc(O)cc1)NC(=O)[C@H](CC(=O)O)NC(=O)[C@H](CO)NC(=O)[C@@H](NC(=O)[C@H](Cc1ccccc1)NC(=O)[C@@H](NC(=O)CNC(=O)[C@@H](N)CO)[C@@H](C)O)[C@@H](C)CC)C(=O)N[C@@H](C)C(=O)N[C@@H](CCSC)C(=O)N[C@@H](CC(=O)O)C(=O)N[C@@H](CCCNC(=N)N)C(=O)N[C@H](C(=O)N[C@@H](CCCCNC(=O)CC[C@H](NC(=O)CCCCCCCCCCCCCCC(=O)O)C(=O)O)C(=O)N[C@@H](CCC(N)=O)C(=O)N[C@@H](CCC(N)=O)C(=O)N[C@@H](CC(=O)O)C(=O)N[C@@H](Cc1ccccc1)C(=O)N[C@H](C(=O)N[C@@H](CC(N)=O)C(=O)N[C@@H](Cc1c[nH]c2ccccc12)C(=O)N[C@@H](CC(C)C)C(=O)N[C@@H](CC(C)C)C(=O)N[C@@H](C)C(=O)N[C@@H](CCC(N)=O)C(=O)N[C@@H](CCCNC(=N)N)C(N)=O)C(C)C)[C@@H](C)CC
B5: AT356 (peptide)
peptide: DYSIAMDKIK(C16 diacid)QQDFVNWLLAQK-NH2
modifications: N-terminus assumed
SMILES: CC[C@H](C)[C@H](NC(=O)[C@H](CO)NC(=O)[C@H](Cc1ccc(O)cc1)NC(=O)[C@@H](N)CC(=O)O)C(=O)N[C@@H](C)C(=O)N[C@@H](CCSC)C(=O)N[C@@H](CC(=O)O)C(=O)N[C@@H](CCCCN)C(=O)N[C@H](C(=O)N[C@@H](CCCCNC(=O)CCCCCCCCCCCCCCC(=O)O)C(=O)N[C@@H](CCC(N)=O)C(=O)N[C@@H](CCC(N)=O)C(=O)N[C@@H](CC(=O)O)C(=O)N[C@@H](Cc1ccccc1)C(=O)N[C@H](C(=O)N[C@@H](CC(N)=O)C(=O)N[C@@H](Cc1c[nH]c2ccccc12)C(=O)N[C@@H](CC(C)C)C(=O)N[C@@H](CC(C)C)C(=O)N[C@@H](C)C(=O)N[C@@H](CCC(N)=O)C(=O)N[C@@H](CCCCN)C(N)=O)C(C)C)[C@@H](C)CC
B6: AT502 (peptide)
peptide: GGTFISDYSIAMDRIKQQDFVNWLLAQR
HELM: PEPTIDE1{G.G.T.F.I.S.D.Y.S.I.A.M.D.R.I.K.Q.Q.D.F.V.N.W.L.L.A.Q.R.[am]}|PEPTIDE2{[O=C(O)CCCCCCCCCCCCCCC(=O)[*:2]].[gGlu]}$PEPTIDE1,PEPTIDE2,16:R3-2:R2$$$V2.0; N-terminus assumed
SMILES: CC[C@H](C)[C@H](NC(=O)[C@H](CO)NC(=O)[C@H](Cc1ccc(O)cc1)NC(=O)[C@H](CC(=O)O)NC(=O)[C@H](CO)NC(=O)[C@@H](NC(=O)[C@H](Cc1ccccc1)NC(=O)[C@@H](NC(=O)CNC(=O)CN)[C@@H](C)O)[C@@H](C)CC)C(=O)N[C@@H](C)C(=O)N[C@@H](CCSC)C(=O)N[C@@H](CC(=O)O)C(=O)N[C@@H](CCCNC(=N)N)C(=O)N[C@H](C(=O)N[C@@H](CCCCNC(=O)CC[C@H](NC(=O)CCCCCCCCCCCCCCC(=O)O)C(=O)O)C(=O)N[C@@H](CCC(N)=O)C(=O)N[C@@H](CCC(N)=O)C(=O)N[C@@H](CC(=O)O)C(=O)N[C@@H](Cc1ccccc1)C(=O)N[C@H](C(=O)N[C@@H](CC(N)=O)C(=O)N[C@@H](Cc1c[nH]c2ccccc12)C(=O)N[C@@H](CC(C)C)C(=O)N[C@@H](CC(C)C)C(=O)N[C@@H](C)C(=O)N[C@@H](CCC(N)=O)C(=O)N[C@@H](CCCNC(=N)N)C(N)=O)C(C)C)[C@@H](C)CC

From patent publication US20220025010A1 (ANTAG THERAPEUTICS, published 2022) come the findings set out here.

Where no end group is shown, it is not given here. The star is where a group is joined. C16 diacid = O=C(O)CCCCCCCCCCCCCCC(=O)*

The target of the experiment is T1, human GIP receptor (human, UniProt P48546 22-466).
T1 sequence (looked up): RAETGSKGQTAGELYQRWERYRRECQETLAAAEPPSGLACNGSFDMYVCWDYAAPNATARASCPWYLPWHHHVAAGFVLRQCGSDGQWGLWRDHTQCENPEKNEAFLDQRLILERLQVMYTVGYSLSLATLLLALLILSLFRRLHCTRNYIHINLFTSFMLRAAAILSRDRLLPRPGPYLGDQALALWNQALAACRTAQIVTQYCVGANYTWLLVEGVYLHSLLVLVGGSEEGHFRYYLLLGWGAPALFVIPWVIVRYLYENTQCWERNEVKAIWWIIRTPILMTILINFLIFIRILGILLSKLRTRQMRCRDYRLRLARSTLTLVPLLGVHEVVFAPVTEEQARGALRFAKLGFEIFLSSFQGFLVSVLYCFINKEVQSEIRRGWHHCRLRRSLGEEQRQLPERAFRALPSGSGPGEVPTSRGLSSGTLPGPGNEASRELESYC
In words: cell-based or functional assay.
In the case of B1, the “CisBio cAMP agonism % Efficacy” value came out at 4%, the “CisBio cAMP antagonism % inhib” value came to 77%, the “CisBio cAMP antagonism IC50” value was 66.8 nM and the “CisBio cAMP antagonism pIC50” value is 7.2. In addition, the “DiscoveRx cAMP antagonism % inhib” value was found to be 90%, the “DiscoveRx cAMP antagonism IC50” value was 29 nM and the “DiscoveRx cAMP antagonism log IC50” value was -7.5 log M.
Turning to B2, the “CisBio cAMP antagonism pIC50” value is 7.9, the “DiscoveRx cAMP agonism Emax” value turned out to be 6 and the “DiscoveRx cAMP antagonism log IC50” value is -7.7 log M.
For B3, the “CisBio cAMP agonism % Efficacy” value was determined as 0%, the “CisBio cAMP antagonism % inhib” value was found to be 100%, the “CisBio cAMP antagonism IC50” value was 39.8 nM and the “CisBio cAMP antagonism pIC50” value is 7.4. Moreover, the “DiscoveRx cAMP antagonism % inhib” value came to 100%, the “DiscoveRx cAMP antagonism IC50” value came to 12 nM and the “DiscoveRx cAMP antagonism log IC50” value is -7.9 log M.
For B4, the “CisBio cAMP agonism % Efficacy” value amounted to 0%, the “CisBio cAMP antagonism % inhib” value is 85%, the “CisBio cAMP antagonism IC50” value was 39.8 nM and the “CisBio cAMP antagonism pIC50” value amounted to 7.4. For the same molecule, the “DiscoveRx cAMP antagonism % inhib” value amounted to 90%, the “DiscoveRx cAMP antagonism IC50” value was found to be 21 nM and the “DiscoveRx cAMP antagonism log IC50” value is -7.7 log M.
B5: the “CisBio cAMP agonism % Efficacy” value worked out at 0%.
Regarding B6, the “CisBio cAMP agonism % Efficacy” value amounted to 13%, the “CisBio cAMP antagonism % inhib” value amounted to 65%, the “CisBio cAMP antagonism IC50” value stood at 293 nM and the “CisBio cAMP antagonism pIC50” value came out at 6.5. Moreover, the “DiscoveRx cAMP agonism Emax” value stood at 5, the “DiscoveRx cAMP antagonism % inhib” value came out at 85%, the “DiscoveRx cAMP antagonism IC50” value turned out to be 52 nM and the “DiscoveRx cAMP antagonism log IC50” value was -7.3 log M.
